Results from publication PMC3448639.

Experiment: 6% PFO-PAGE immunoblot
Conditions: glycan lost; control: wild type

B1: SR-BI (scavenger receptor class B type I; CLA-1): T175A (protein)
parent chain: MGCSAKARWAAGALGVAGLLCAVLGAVMIVMVPSLIKQQVLKNVRIDPSSLSFNMWKEIPIPFYLSVYFFDVMNPSEILKGEKPQVRERGPYVYREFRHKSNITFNNNDTVSFLEYRTFQFQPSKSHGSESDYIVMPNILVLGAAVMMENKPMTLKLIMTLAFTTLGERAFMNRTVGEIMWGYKDPLVNLINKYFPGMFPFKDKFGLFAELNNSDSGLFTVFTGVQNISRIHLVDKWNGLSKVDFWHSDQCNMINGTSGQMWPPFMTPESSLEFYSPEACRSMKLMYKESGVFEGIPTYRFVAPKTLFANGSIYPPNEGFCPCLESGIQNVSTCRFSAPLFLSHPHFLNADPVLAEAVTGLHPNQEAHSLFLDIHPVTGIPMNCSVKLQLSLYMKSVAGIGQTGKIEPVVLPLLWFAESGAMEGETLHTFYTQLVLMPKVMHYAQYVLLALGCVLLLVPVICQIRSQVGAGQRAARADSHSLACWGKGASDRTLWPTAAWSPPPAAVLRLCRSGSGHCWGLRSTLASFACRVATTLPVLEGLGPSLGGGTGS
oligomerisation: no change
